Measurements from publication PMC13054468 (Analytical chemistry, 2025).
Values joined by “and” are separate entries in the source; they are usually repeats but may differ in a detail not shown here. Equal entries are not always repeated.

B1: cholera toxin B (natural protein)
chain: TPQNITDLCAEYHNTQIYTLNDKIFSYTESLAGKREMAIITFKNGAIFQVEVPGSQHIDSQKKAIERMKDTLRIAYLTEAKVEKLCVWNNKTPHAIAAISMAN
notes: also called CTB

Experiments:
[1] = biological target: hepatitis B virus (HBV) capsid protein (hepatitis B virus) (UniProt P03146); test: native MS
native MS = biological target: the molecule itself; test: native MS

Molecule | stoichiometry N [1] | binding result (native MS)
hepatitis B virus (HBV) capsid protein (from UniProt P03146 1-183) (natural protein) | 240 and 180 | –
B1 | – | binds
